Results taken from the supplement of paper PMC11908140.

B1: library; numbered along this chain (parent)
chain: MRKPRAAVGSGHRKQAASQEGRQKHAKNNSQAKPSACDGLARQPEEVVLQASVSSYHLFRDVAEVTAFRGSLLSWYDQEKRDLPWRRRAEDEMDLDRRAYAVWVSEVMLQQTQVATVINYYTGWMQKWPTLQDLASASLEEVNQLWAGLGYYSRGRRLQEGARKVVEELGGHMPRTAETLQQLLPGVGRYTAGAIASIAFGQATGVVDGNVARVLCRVRAIGADPSSTLVSQQLWGLAQQLVDPARPGDFNQAAMELGATVCTPQRPLCSQCPVESLCRARQRVEQEQLLASGSLSGSPDVEECAPNTGQCHLCLPPSEPWDQTLGVVNFPRKASRKPPREESSATCVLEQPGALGAQILLVQRPNSGLLAGLWEFPSVTWEPSEQLQRKALLQELQRWAGPLPATHLRHLGEVVHTFSHIKLTYQVYGLALEGQTPVTTVPPGARWLTQEEFHTAAVSTAMKKVFRVYQGQQPGTCMGSKRSQVSSPCSRKKPRMGQQVLDNFFRSHISTDAHSLNSAAQ

Variants of: B1
Assay: 8OG:A repair function score (normalized; synonymous = 0, nonsense = -1) (normalized log-likelihood score); higher = more repair activity (WT-like)
Details: with 8OG:A DNA repair reporter (GFP) in HEK-293 MUTYH KO cells
Summary of the method: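 With 10 pg/ml doxycycline, MUTYH knockout HEK-293 cells carrying lentiviral MUTYH cDNA NNN codon-scan libraries were co-transfected with mCherry and an 8OG:A GFP repair reporter. Viable mCherry+ cells were sorted into GFP+ (repair) and GFP− bins at 72 h, three replicates per tile, and tile amplicons were sequenced. Per-tile Rosace fitness scores were then normalized into a repair function score anchored on synonymous and nonsense distributions. Medians were fixed at 0 for synonymous and -1 for nonsense, excluding variants under 300 counts per million at the start.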

Row | Variant | 8OG:A repair function score
1 | MRKPRAAVGSGHRKQAASQEGRQKHAKNNSQAKPSACDGLARQPEEVVLQASVSSYHLFRDVAEVTAFRGSLLSWYDQEKRDLPWRRRAEDEMDLDRRAYAVWVSEVMLQQTQVATVINYYTGWMQKWPTLQDLASASLEEVNQLWAGLGYYSRGRRLQEGARKVVEELGGHMPRTAETLQQLLPGVGRYTAGAIASIAFGQATGVVDGNVARVLCRVRAIGADPSSTLVSQQLWGLAQQLVDPARPGDFNQAAMELGATVCTPQRPLCSQCPVESLCRARQRVEQEQLLASGSLSGSPDVEECAPNTGQCHLCLPPSEPWDQTLGVVNFPRKASRKPPREESSATCVLEQPGALGAQILLVQRPNSGLLAGLWEFPSVTWEPSEQLQRKALLQELQRWAGPLPATHLRHLGEVVHTFSHIKLTYQVYGLALEGQTPVTTVPPGARWLTQEEFHTAAVSTAMFKVFRVYQGQQPGTCMGSKRSQVSSPCSRKKPRMGQQVLDNFFRSHISTDAHSLNSAAQ [K463F] | -0.101
2 | MRKPRAAVGSGHRKQAASQEGRQKHAKNNSQAKPSACDGLARQPEEVVLQASVSSYHLFRDVAEVTAFRGSLLSWYDQEKRDLPWRRRAEDEMDLDRRAYAVWVSEVMLQQTQVATVINYYTGWMQKWPTLQDLASASLEEVNQLWAGLGYYSRGRRLQEGARKVVEELGGHMPRTAETLQQLLPGVGRYTAGAIASIAFGQATGVVDGNVARVLCRVRAIGADPSSTLVSQQLWGLAQQLVDPARPGDFNQAAMELGATVCTPQRPLCSQCPVESLCRARQRVEQEQLLASGSLSGSPDVEECAPNTGQCHLCLPPSEPWDQTLGVVNFPRKASRKPPREESSATCVLEQPGALGAQILLVQRPNSGLLAGLWEFPSVTWEPSEQLQRKALLQELQRWAGPLPATHLRHLGEVVHTFSHIKLTYQVYGLALEGQTPVTTVPPGARWLTQEEFHTAAVSTAMLKVFRVYQGQQPGTCMGSKRSQVSSPCSRKKPRMGQQVLDNFFRSHISTDAHSLNSAAQ [K463L] | -0.0958
3 | MRKPRAAVGSGHRKQAASQEGRQKHAKNNSQAKPSACDGLARQPEEVVLQASVSSYHLFRDVAEVTAFRGSLLSWYDQEKRDLPWRRRAEDEMDLDRRAYAVWVSEVMLQQTQVATVINYYTGWMQKWPTLQDLASASLEEVNQLWAGLGYYSRGRRLQEGARKVVEELGGHMPRTAETLQQLLPGVGRYTAGAIASIAFGQATGVVDGNVARVLCRVRAIGADPSSTLVSQQLWGLAQQLVDPARPGDFNQAAMELGATVCTPQRPLCSQCPVESLCRARQRVEQEQLLASGSLSGSPDVEECAPNTGQCHLCLPPSEPWDQTLGVVNFPRKASRKPPREESSATCVLEQPGALGAQILLVQRPNSGLLAGLWEFPSVTWEPSEQLQRKALLQELQRWAGPLPATHLRHLGEVVHTFSHIKLTYQVYGLALEGQTPVTTVPPGARWLTQEEFHTAAVSTAMMKVFRVYQGQQPGTCMGSKRSQVSSPCSRKKPRMGQQVLDNFFRSHISTDAHSLNSAAQ [K463M] | -0.0542
4 | MRKPRAAVGSGHRKQAASQEGRQKHAKNNSQAKPSACDGLARQPEEVVLQASVSSYHLFRDVAEVTAFRGSLLSWYDQEKRDLPWRRRAEDEMDLDRRAYAVWVSEVMLQQTQVATVINYYTGWMQKWPTLQDLASASLEEVNQLWAGLGYYSRGRRLQEGARKVVEELGGHMPRTAETLQQLLPGVGRYTAGAIASIAFGQATGVVDGNVARVLCRVRAIGADPSSTLVSQQLWGLAQQLVDPARPGDFNQAAMELGATVCTPQRPLCSQCPVESLCRARQRVEQEQLLASGSLSGSPDVEECAPNTGQCHLCLPPSEPWDQTLGVVNFPRKASRKPPREESSATCVLEQPGALGAQILLVQRPNSGLLAGLWEFPSVTWEPSEQLQRKALLQELQRWAGPLPATHLRHLGEVVHTFSHIKLTYQVYGLALEGQTPVTTVPPGARWLTQEEFHTAAVSTAMGKVFRVYQGQQPGTCMGSKRSQVSSPCSRKKPRMGQQVLDNFFRSHISTDAHSLNSAAQ [K463G] | -0.303
5 | MRKPRAAVGSGHRKQAASQEGRQKHAKNNSQAKPSACDGLARQPEEVVLQASVSSYHLFRDVAEVTAFRGSLLSWYDQEKRDLPWRRRAEDEMDLDRRAYAVWVSEVMLQQTQVATVINYYTGWMQKWPTLQDLASASLEEVNQLWAGLGYYSRGRRLQEGARKVVEELGGHMPRTAETLQQLLPGVGRYTAGAIASIAFGQATGVVDGNVARVLCRVRAIGADPSSTLVSQQLWGLAQQLVDPARPGDFNQAAMELGATVCTPQRPLCSQCPVESLCRARQRVEQEQLLASGSLSGSPDVEECAPNTGQCHLCLPPSEPWDQTLGVVNFPRKASRKPPREESSATCVLEQPGALGAQILLVQRPNSGLLAGLWEFPSVTWEPSEQLQRKALLQELQRWAGPLPATHLRHLGEVVHTFSHIKLTYQVYGLALEGQTPVTTVPPGARWLTQEEFHTAAVSTAMNKVFRVYQGQQPGTCMGSKRSQVSSPCSRKKPRMGQQVLDNFFRSHISTDAHSLNSAAQ [K463N] | -0.338
6 | MRKPRAAVGSGHRKQAASQEGRQKHAKNNSQAKPSACDGLARQPEEVVLQASVSSYHLFRDVAEVTAFRGSLLSWYDQEKRDLPWRRRAEDEMDLDRRAYAVWVSEVMLQQTQVATVINYYTGWMQKWPTLQDLASASLEEVNQLWAGLGYYSRGRRLQEGARKVVEELGGHMPRTAETLQQLLPGVGRYTAGAIASIAFGQATGVVDGNVARVLCRVRAIGADPSSTLVSQQLWGLAQQLVDPARPGDFNQAAMELGATVCTPQRPLCSQCPVESLCRARQRVEQEQLLASGSLSGSPDVEECAPNTGQCHLCLPPSEPWDQTLGVVNFPRKASRKPPREESSATCVLEQPGALGAQILLVQRPNSGLLAGLWEFPSVTWEPSEQLQRKALLQELQRWAGPLPATHLRHLGEVVHTFSHIKLTYQVYGLALEGQTPVTTVPPGARWLTQEEFHTAAVSTAMSKVFRVYQGQQPGTCMGSKRSQVSSPCSRKKPRMGQQVLDNFFRSHISTDAHSLNSAAQ [K463S] | -0.241
7 | MRKPRAAVGSGHRKQAASQEGRQKHAKNNSQAKPSACDGLARQPEEVVLQASVSSYHLFRDVAEVTAFRGSLLSWYDQEKRDLPWRRRAEDEMDLDRRAYAVWVSEVMLQQTQVATVINYYTGWMQKWPTLQDLASASLEEVNQLWAGLGYYSRGRRLQEGARKVVEELGGHMPRTAETLQQLLPGVGRYTAGAIASIAFGQATGVVDGNVARVLCRVRAIGADPSSTLVSQQLWGLAQQLVDPARPGDFNQAAMELGATVCTPQRPLCSQCPVESLCRARQRVEQEQLLASGSLSGSPDVEECAPNTGQCHLCLPPSEPWDQTLGVVNFPRKASRKPPREESSATCVLEQPGALGAQILLVQRPNSGLLAGLWEFPSVTWEPSEQLQRKALLQELQRWAGPLPATHLRHLGEVVHTFSHIKLTYQVYGLALEGQTPVTTVPPGARWLTQEEFHTAAVSTAMRKVFRVYQGQQPGTCMGSKRSQVSSPCSRKKPRMGQQVLDNFFRSHISTDAHSLNSAAQ [K463R] | -0.0765
8 | MRKPRAAVGSGHRKQAASQEGRQKHAKNNSQAKPSACDGLARQPEEVVLQASVSSYHLFRDVAEVTAFRGSLLSWYDQEKRDLPWRRRAEDEMDLDRRAYAVWVSEVMLQQTQVATVINYYTGWMQKWPTLQDLASASLEEVNQLWAGLGYYSRGRRLQEGARKVVEELGGHMPRTAETLQQLLPGVGRYTAGAIASIAFGQATGVVDGNVARVLCRVRAIGADPSSTLVSQQLWGLAQQLVDPARPGDFNQAAMELGATVCTPQRPLCSQCPVESLCRARQRVEQEQLLASGSLSGSPDVEECAPNTGQCHLCLPPSEPWDQTLGVVNFPRKASRKPPREESSATCVLEQPGALGAQILLVQRPNSGLLAGLWEFPSVTWEPSEQLQRKALLQELQRWAGPLPATHLRHLGEVVHTFSHIKLTYQVYGLALEGQTPVTTVPPGARWLTQEEFHTAAVSTAMPKVFRVYQGQQPGTCMGSKRSQVSSPCSRKKPRMGQQVLDNFFRSHISTDAHSLNSAAQ [K463P] | -0.617
9 | MRKPRAAVGSGHRKQAASQEGRQKHAKNNSQAKPSACDGLARQPEEVVLQASVSSYHLFRDVAEVTAFRGSLLSWYDQEKRDLPWRRRAEDEMDLDRRAYAVWVSEVMLQQTQVATVINYYTGWMQKWPTLQDLASASLEEVNQLWAGLGYYSRGRRLQEGARKVVEELGGHMPRTAETLQQLLPGVGRYTAGAIASIAFGQATGVVDGNVARVLCRVRAIGADPSSTLVSQQLWGLAQQLVDPARPGDFNQAAMELGATVCTPQRPLCSQCPVESLCRARQRVEQEQLLASGSLSGSPDVEECAPNTGQCHLCLPPSEPWDQTLGVVNFPRKASRKPPREESSATCVLEQPGALGAQILLVQRPNSGLLAGLWEFPSVTWEPSEQLQRKALLQELQRWAGPLPATHLRHLGEVVHTFSHIKLTYQVYGLALEGQTPVTTVPPGARWLTQEEFHTAAVSTAMQKVFRVYQGQQPGTCMGSKRSQVSSPCSRKKPRMGQQVLDNFFRSHISTDAHSLNSAAQ [K463Q] | -0.183
10 | MRKPRAAVGSGHRKQAASQEGRQKHAKNNSQAKPSACDGLARQPEEVVLQASVSSYHLFRDVAEVTAFRGSLLSWYDQEKRDLPWRRRAEDEMDLDRRAYAVWVSEVMLQQTQVATVINYYTGWMQKWPTLQDLASASLEEVNQLWAGLGYYSRGRRLQEGARKVVEELGGHMPRTAETLQQLLPGVGRYTAGAIASIAFGQATGVVDGNVARVLCRVRAIGADPSSTLVSQQLWGLAQQLVDPARPGDFNQAAMELGATVCTPQRPLCSQCPVESLCRARQRVEQEQLLASGSLSGSPDVEECAPNTGQCHLCLPPSEPWDQTLGVVNFPRKASRKPPREESSATCVLEQPGALGAQILLVQRPNSGLLAGLWEFPSVTWEPSEQLQRKALLQELQRWAGPLPATHLRHLGEVVHTFSHIKLTYQVYGLALEGQTPVTTVPPGARWLTQEEFHTAAVSTAMIKVFRVYQGQQPGTCMGSKRSQVSSPCSRKKPRMGQQVLDNFFRSHISTDAHSLNSAAQ [K463I] | -0.089
11 | MRKPRAAVGSGHRKQAASQEGRQKHAKNNSQAKPSACDGLARQPEEVVLQASVSSYHLFRDVAEVTAFRGSLLSWYDQEKRDLPWRRRAEDEMDLDRRAYAVWVSEVMLQQTQVATVINYYTGWMQKWPTLQDLASASLEEVNQLWAGLGYYSRGRRLQEGARKVVEELGGHMPRTAETLQQLLPGVGRYTAGAIASIAFGQATGVVDGNVARVLCRVRAIGADPSSTLVSQQLWGLAQQLVDPARPGDFNQAAMELGATVCTPQRPLCSQCPVESLCRARQRVEQEQLLASGSLSGSPDVEECAPNTGQCHLCLPPSEPWDQTLGVVNFPRKASRKPPREESSATCVLEQPGALGAQILLVQRPNSGLLAGLWEFPSVTWEPSEQLQRKALLQELQRWAGPLPATHLRHLGEVVHTFSHIKLTYQVYGLALEGQTPVTTVPPGARWLTQEEFHTAAVSTAMHKVFRVYQGQQPGTCMGSKRSQVSSPCSRKKPRMGQQVLDNFFRSHISTDAHSLNSAAQ [K463H] | -0.12
12 | MRKPRAAVGSGHRKQAASQEGRQKHAKNNSQAKPSACDGLARQPEEVVLQASVSSYHLFRDVAEVTAFRGSLLSWYDQEKRDLPWRRRAEDEMDLDRRAYAVWVSEVMLQQTQVATVINYYTGWMQKWPTLQDLASASLEEVNQLWAGLGYYSRGRRLQEGARKVVEELGGHMPRTAETLQQLLPGVGRYTAGAIASIAFGQATGVVDGNVARVLCRVRAIGADPSSTLVSQQLWGLAQQLVDPARPGDFNQAAMELGATVCTPQRPLCSQCPVESLCRARQRVEQEQLLASGSLSGSPDVEECAPNTGQCHLCLPPSEPWDQTLGVVNFPRKASRKPPREESSATCVLEQPGALGAQILLVQRPNSGLLAGLWEFPSVTWEPSEQLQRKALLQELQRWAGPLPATHLRHLGEVVHTFSHIKLTYQVYGLALEGQTPVTTVPPGARWLTQEEFHTAAVSTAMEKVFRVYQGQQPGTCMGSKRSQVSSPCSRKKPRMGQQVLDNFFRSHISTDAHSLNSAAQ [K463E] | -0.265
